{
  "source": "paper PMC10981675",
  "about": "“Structural basis for phage-mediated activation and repression of bacterial DSR2 anti-phage defense system” (Nature Communications, 2024)",
  "molecules": {"B1": {"name": "defense-associated sirtuin 2 (DSR2), wild type (enzyme, Bacillus subtilis)", "chain": "MVKVDLESKRYGEKLKEVFLMLDNNVVECIKEITESSRNGKLVFFVGAGVSTLSDYPQWWRLVDKYHEELYGSPKKGNYSSDEYLRIPQIFYNVKGEMAFDGILKDFFQVDKPTNPIHDKILAMNPAHVITTNYDNLIDTACWKRGKYFSVISAEEDVANATSSRYLLKVHGDFRKGFKGENVVLKEDDYLNYDQNYPLISNLMKTIIATHTIVFIGYGLGDYNINMLLNWVRKLQKDSFHKPFFIRTDPSPIENETLIYYENKGLRIIDAASLIDSNEYDYLERYSAVMDLLIESQENKFITKDDEVIDYIYGKISPLFALQYIRKIDLKHVFEYDYHFEVNGTVVRHKNKGFGYMERFFELKESCDERSKLSKKQYERFNALFNFFEKNGVICMAKDAGTLNTSIEINSLAYHGKYDVMKKFIEEQSVSIEDDYKKAFFLACLGRWEESYDLYSNIILNSIDESNGCVYYLSQINRYRIYQSITQAVTQFNGLGLLTFGRHYKPFTDEFLARIEREMTNFNIDDLFNGMPFEFQKKYKILEFLSDNQFLYDDTVKLFELTNKVRSEMSEGSYSFGMSSDIVVLLRLYDNLRFLYENCLWSVSFHEFHQYIRNSMSLLIEKAEYERTRDIDELGFSFFGKKSGFFMEYYDFVNISRHFKIDDIKNLERSCSIDKIRFGEQEKIEEYLVGIAEEITKQFSANGMNVVFYTQFISEAKAALYFAKYVKLSEEGLGKIVKALLFYFPERDLDIGKRYVWLERLTKCNELPKSIISIIDDFLVLQAEKHIDQNYSEVSSNGLYSRDYGALIKHFEKNFISKRLSEITLCLTQDKQKQIDFLFKLLPLLSTNAKSHLLSFKSVENINDLMNGIRIGLIDEFTPEHEELIIEYLETRKVNYIVEKEKGIQTFSSNDYMSTFGIWYFLEEINNSKMEEFIGMDDQYDFFVDPENFDYKKFIPSWLKNYNDKLLGKIAGNKHMKHHVIEVLKERVKNSNDKRYLEILMNYFI", "notes": "DSR2 (defense-associated sirtuin 2) of Bacillus subtilis, NCBI protein WP_029317421; codon-optimized synthetic gene in pRSFDuet MCS1; Tetramer (dimer of dimers) by cryo-EM and SEC; also called WT DSR2; wild-type DSR2; source: E. coli BL21 Star (DE3), purified (Ni-NTA, HiTrap Q, Superdex 200); also co-purified with tube or DSAD1; not shown: 6×His, N-terminal, kept"}, "B2": {"name": "DSR2 H171A (enzyme, Bacillus subtilis)", "chain": "MVKVDLESKRYGEKLKEVFLMLDNNVVECIKEITESSRNGKLVFFVGAGVSTLSDYPQWWRLVDKYHEELYGSPKKGNYSSDEYLRIPQIFYNVKGEMAFDGILKDFFQVDKPTNPIHDKILAMNPAHVITTNYDNLIDTACWKRGKYFSVISAEEDVANATSSRYLLKVAGDFRKGFKGENVVLKEDDYLNYDQNYPLISNLMKTIIATHTIVFIGYGLGDYNINMLLNWVRKLQKDSFHKPFFIRTDPSPIENETLIYYENKGLRIIDAASLIDSNEYDYLERYSAVMDLLIESQENKFITKDDEVIDYIYGKISPLFALQYIRKIDLKHVFEYDYHFEVNGTVVRHKNKGFGYMERFFELKESCDERSKLSKKQYERFNALFNFFEKNGVICMAKDAGTLNTSIEINSLAYHGKYDVMKKFIEEQSVSIEDDYKKAFFLACLGRWEESYDLYSNIILNSIDESNGCVYYLSQINRYRIYQSITQAVTQFNGLGLLTFGRHYKPFTDEFLARIEREMTNFNIDDLFNGMPFEFQKKYKILEFLSDNQFLYDDTVKLFELTNKVRSEMSEGSYSFGMSSDIVVLLRLYDNLRFLYENCLWSVSFHEFHQYIRNSMSLLIEKAEYERTRDIDELGFSFFGKKSGFFMEYYDFVNISRHFKIDDIKNLERSCSIDKIRFGEQEKIEEYLVGIAEEITKQFSANGMNVVFYTQFISEAKAALYFAKYVKLSEEGLGKIVKALLFYFPERDLDIGKRYVWLERLTKCNELPKSIISIIDDFLVLQAEKHIDQNYSEVSSNGLYSRDYGALIKHFEKNFISKRLSEITLCLTQDKQKQIDFLFKLLPLLSTNAKSHLLSFKSVENINDLMNGIRIGLIDEFTPEHEELIIEYLETRKVNYIVEKEKGIQTFSSNDYMSTFGIWYFLEEINNSKMEEFIGMDDQYDFFVDPENFDYKKFIPSWLKNYNDKLLGKIAGNKHMKHHVIEVLKERVKNSNDKRYLEILMNYFI", "notes": "DSR2 of Bacillus subtilis, NCBI protein WP_029317421, with H171A; source: E. coli, co-expressed with the tail tube protein, co-purified"}},
  "key": {"[1]": {"target": "defense-associated sirtuin 2 (DSR2), wild type (Bacillus subtilis) (UniProt P0DXN8)", "experiment": "cryo-EM structure; co-purified complex incubated with 1 mM NAD+ before freezing", "conditions": "scale: DSAD1 per DSR2"}, "[2]": {"target": "defense-associated sirtuin 2 (DSR2), wild type (Bacillus subtilis) (UniProt P0DXN8)", "experiment": "cryo-EM structure; purified DSR2 (~25 mg/mL), co-purified DSR2-DSAD1 (~25 mg/mL) or co-purified DSR2-tube (~4 mg/mL, polylysine-treated grid); no NAD+ added; Titan Krios 300 kV", "conditions": "scale: DSAD1 per DSR2"}, "[3]": {"target": "T1, DSR2–tube complex (Bacillus subtilis, UniProt P0DXN8)", "T1 construct": "gene BKP58_08510; full-length DSR2, N-terminal 6xHis, E. coli BL21 Star (DE3), codon-optimized; tube GST tag removed by HRV 3C; tetrameric DSR2; DSR2:tube 4:2 (wild type) or 4:4 (H171A with NAD+); with Tail tube protein (Bacillus phage SPR)", "T1 sequence (P0DXN8 1-1005)": "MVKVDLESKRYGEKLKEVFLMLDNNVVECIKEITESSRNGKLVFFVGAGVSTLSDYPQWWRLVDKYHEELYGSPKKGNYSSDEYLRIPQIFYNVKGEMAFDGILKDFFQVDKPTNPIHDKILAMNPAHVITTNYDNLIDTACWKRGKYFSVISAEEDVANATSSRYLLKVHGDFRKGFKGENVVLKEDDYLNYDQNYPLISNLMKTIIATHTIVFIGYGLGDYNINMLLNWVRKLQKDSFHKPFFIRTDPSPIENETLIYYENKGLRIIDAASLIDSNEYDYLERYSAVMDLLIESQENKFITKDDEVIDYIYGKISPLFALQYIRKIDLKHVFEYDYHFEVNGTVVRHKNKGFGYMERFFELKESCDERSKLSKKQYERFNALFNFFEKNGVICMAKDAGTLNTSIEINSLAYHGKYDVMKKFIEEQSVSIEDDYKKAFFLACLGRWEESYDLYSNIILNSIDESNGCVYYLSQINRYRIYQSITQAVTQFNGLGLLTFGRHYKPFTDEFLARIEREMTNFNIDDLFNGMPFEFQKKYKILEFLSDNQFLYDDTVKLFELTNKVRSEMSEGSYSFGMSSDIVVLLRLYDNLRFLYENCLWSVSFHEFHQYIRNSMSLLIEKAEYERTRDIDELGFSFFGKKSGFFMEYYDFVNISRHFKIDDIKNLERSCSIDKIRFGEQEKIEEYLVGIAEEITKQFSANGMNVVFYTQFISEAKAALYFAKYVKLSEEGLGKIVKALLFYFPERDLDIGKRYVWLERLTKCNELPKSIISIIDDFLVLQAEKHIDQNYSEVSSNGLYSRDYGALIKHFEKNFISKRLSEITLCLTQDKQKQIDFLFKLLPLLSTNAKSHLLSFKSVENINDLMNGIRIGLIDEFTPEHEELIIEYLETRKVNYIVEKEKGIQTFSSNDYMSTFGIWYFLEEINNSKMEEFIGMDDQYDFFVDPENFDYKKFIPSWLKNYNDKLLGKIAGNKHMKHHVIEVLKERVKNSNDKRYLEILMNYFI", "T1 sequence (A0AAE9G628 1-264 partner)": "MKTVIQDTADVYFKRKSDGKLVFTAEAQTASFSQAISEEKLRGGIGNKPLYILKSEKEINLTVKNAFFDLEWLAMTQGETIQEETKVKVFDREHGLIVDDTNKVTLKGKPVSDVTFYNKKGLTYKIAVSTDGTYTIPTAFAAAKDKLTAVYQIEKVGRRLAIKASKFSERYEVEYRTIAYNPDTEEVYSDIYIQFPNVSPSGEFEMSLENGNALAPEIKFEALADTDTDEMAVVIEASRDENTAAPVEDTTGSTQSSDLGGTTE", "experiment": "fluorescence NADase assay (ex […] nm, em […] nm)", "type": "biochemical", "conditions": "400 nM protein, 50 μM εNAD+, 10 mM MES pH 6.5, 75 mM KCl, 2 mM MgCl2, 37 °C"}, "[4]": {"target": "the molecule itself", "experiment": "SEC; purified DSR2 alone; Superdex 200 Increase 10/300 GL, 20 mM Tris-HCl pH 7.5, 150 mM NaCl, 1 mM DTT"}, "[5]": {"target": "the molecule itself", "experiment": "cryo-EM structure; co-purified complex incubated with 1 mM NAD+ before freezing"}, "[6]": {"target": "the molecule itself", "experiment": "SEC; purified tail tube protein alone"}, "[7]": {"target": "B2", "experiment": "cryo-EM structure; co-purified complex incubated with 1 mM NAD+ before freezing", "conditions": "both partners purified"}, "[8]": {"target": "B1", "experiment": "cryo-EM structure; purified DSR2 (~25 mg/mL), co-purified DSR2-DSAD1 (~25 mg/mL) or co-purified DSR2-tube (~4 mg/mL, polylysine-treated grid); no NAD+ added; Titan Krios 300 kV", "conditions": "both partners purified"}},
  "data": [
    {"molecule": "DSR anti-defense 1 (DSAD1) (natural protein)", "values": [
      {"measurement": "stoichiometry N", "setting": "[1]", "value": 0.5},
      {"measurement": "stoichiometry N", "setting": "[2]", "value": 0.5}
    ]},
    {"molecule": "NC(=O)c1ccc[n+]([C@@H]2O[C@H](COP(=O)(O)OP(=O)(O)OC[C@H]3O[C@@H](n4cnc5c4ncn4ccnc54)[C@H](O)[C@@H]3O)[C@@H](O)[C@H]2O)c1", "note": "[εNAD^+]", "values": [
      {"measurement": "fluorescence NADase assay (ex 300 nm, em 410 nm)", "setting": "[3]", "value": "The purified DSR2–tube complex exhibited pronounced NADase activity"}
    ]},
    {"molecule": "B1", "values": [
      {"measurement": "stoichiometry N", "setting": "[4]", "value": 4}
    ]},
    {"molecule": "B2", "values": [
      {"measurement": "stoichiometry N", "setting": "[5]", "value": 4}
    ]},
    {"molecule": "tail tube protein of phage SPR, wild type (natural protein, tail tube protein of Bacillus phage SPR; domains D1 and D2; GST removal with HRV 3C is told for the DSR2-tube complex; Alone it runs as monomeric and oligomeric species on SEC; Only D1 is seen in the maps; also called phage tail tube protein; source: E. coli BL21 Star (DE3); purified alone, or co-purified with DSR2 (Ni-NTA, glutathione resin, HRV 3C cleavage, HiTrap Q, Superdex 200); not shown: …) MKTVIQDTADVYFKRKSDGKLVFTAEAQTASFSQAISEEKLRGGIGNKPLYILKSEKEINLTVKNAFFDLEWLAMTQGETIQEETKVKVFDREHGLIVDDTNKVTLKGKPVSDVTFYNKKGLTYKIAVSTDGTYTIPTAFAAAKDKLTAVYQIEKVGRRLAIKASKFSERYEVEYRTIAYNPDTEEVYSDIYIQFPNVSPSGEFEMSLENGNALAPEIKFEALADTDTDEMAVVIEASRDENTAAPVEDTTGSTQSSDLGGTTE", "values": [
      {"measurement": "binding result", "setting": "[6]", "value": "binds"},
      {"measurement": "stoichiometry N", "setting": "[7]", "value": "1 tube per DSR2 (printed as DSR2:tube 4:4)"},
      {"measurement": "stoichiometry N", "setting": "[8]", "value": "0.5 tube per DSR2 (printed as DSR2:tube 4:2)"}
    ]}
  ]
}
